Target: T1, recombinant extracellular alpha-3 domain of MICA (allele 001), Baculovirus-expressed, C-terminal His tag (human, UniProt Q29983 205-297)
T1 construct: Expressed in Sf9 cells and purified by Ni2+ chelation with 8M urea, then dialysed; also called alpha-3 domain MICA protein; target MICA alpha-3 domain recombinant protein
T1 sequence: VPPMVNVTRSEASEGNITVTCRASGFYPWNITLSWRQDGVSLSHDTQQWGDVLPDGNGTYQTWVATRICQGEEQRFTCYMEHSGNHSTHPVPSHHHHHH
Test: BLI (Octet RED96), antibody captured by anti-mouse IgG, antigen in solution, pH 7.4, 1:1 model
Description: Biomolecular interactions between antigen and antibody were directly measured by Bio-Layer Interferometry (BLI) using a Pall ForteBio Octet RED96 machine (Pall ForteBio, CA, USA). Real-time kinetic analyses were performed on the test MICA monoclonal antibodies 1F5 and 8C7, as well as two control antibodies, one of which could bind the alpha-3 MICA subdomain antigen (positive control) and one of which could not (negative control, binds other MICA subdomains), as previously determined by ELISA. The Octet RED96 apparatus operates under the principle of Bio-Layer Interferometry, a label-free technique that measures molecular interactions and complex formation. A key component of the technique is the optical biosensor whose tip is immersed in the fluids of the test well and then used to assay interference patterns between waves of light. Here, the ligand (monoclonal antibody) is localized to the surface of the biosensor through capture by previously bound anti-mouse IgG, while the analyte biomolecule (antigen) is kept in solution. Binding responses between ligand and analyte were measured and reported in real-time. Both association and dissociation kinetics were monitored and KD values were calculated. This model assumed a 1:1 interaction of ligand to analyte.

B1: antibody 1F5 (antibody, IgG1, V domains shown)
VH: QIQLVQSGPELKKPGETVKISCKASGYTFTDYSVHWVKQAPGKGLKWMGWINTETGEPTYADDFKGRFAFSLETSASTAYLQINNLKNEDTATYFCARAGGNAFAYWGQGTLVTVSA
VL: DIVLTQSPASLAVSLGQRATISCRASKSVSTSGYSYMHWYQQKPGQPPKLLIYRASNLESGVPARFSGSGSGTDFTLNIHPVEEEDAATYYCQHSRELPLTFGAGTKLELKR
notes: Mouse hybridoma monoclonal, IgG1 heavy chain and kappa light chain; Tested as hybridoma supernatant in ELISA and FACS; also called IF5; antibody from clone 1F5
In the case of B1, the Kd is reported as about 0.783 nM.

B2: antibody 8C7 (antibody, IgG1, V domains shown)
VH: QIQLVQSGPELKKPGETVKISCKASGYTFTNYGMNWVKQAPGKGLKWMGWINTNTGEPTYAEEFKGRFAFSLETSASTAYLQINNLKNEDTATYFCARSGGSSPFAYWGQGTLVTVSA
VL: DIVMTQAAPSVPVTPGESVSISCRSSKSLLQSNGNTFLYWFMQRPGQSPQLLIYRMSNLASGVPDRFSGSGSGTAFTLRISRVEAEDVGVYYCMQHLEYPFTFGGGTKLEIKR
notes: Mouse hybridoma monoclonal, IgG1 heavy chain and kappa light chain; Tested as hybridoma supernatant in ELISA and FACS; also called antibody from clone 8C7; hybridoma clone 8C7
B2 gave a Kd of about 6.81 nM.
